Assay [1] has as its target T1, Cys-HLA (Staphylococcus aureus).
For assay [2], the target named is T1, Cys-HLA. This is another data set of the same source.
For assay [3], the target named is T1, Cys-HLA. The source holds these as a separate data set.
In assay [4] the target is T1, Cys-HLA. This is another data set of the same source.

Positions count from the first letter of the chain named. Like-named read-outs stand apart in the source and are kept apart here.

B1: Ma8E03 (VHH)
VHH: QVQLVESGGGLVHPGGSLRLSCAASGSSLDHYVIGWFRQVPGKEREGVSCISRSGGSTNYADSVKGRFTVSRDNVKNMVYLQMNSLEPEDSAEYYCAAQRNLGNFCVLGWLEYDDWGQGTQVTVSS
Usually Kd stands for the concentration at which binding is half-saturated. The low end stands for higher affinity, the high end for lower affinity. In turn, B1 returned a Kd with Cys-HLA [1] of at most 0.01 nM.

B2: Ma8G02 (VHH)
VHH: B1 VHH with H13L, V40Y, L111V
In the case of B2, the equilibrium dissociation constant (Kd) in the assay with Cys-HLA [1] was at most 0.01 nM.

B3: Bm28A12 (VHH)
VHH: QVQLVESGGGLVQAGGSLRLSCVVSGRALSSYNLAWFRQSPGKEREWIATIMPSADKAHYPDFLEGRFTISGDNTENTLYLQMNSLKPEDTAIYYCAAREPSYYHALFEYEYNLWGQGTQVTVSS
With B3, the Kd with Cys-HLA [1] is at most 0.01 nM; with Cys-HLA [2] it was 0.13 nM.

B4: Bm28F09 (VHH)
VHH: QVQLVESGGGLVEPGGSLTLSCAASGFTSKNYYIGWFRQAPGKYREGVASIGASDGSLYIADSVKGRFTISSDNAKNTVYLHPRNLKPEDSGVYYCATGRDSWRWVPSAMDYWGKGIQVTVSS
B4 yielded a Kd in the assay with Cys-HLA [1] of 0.15 nM.

B5: Ma8H03 (VHH)
VHH: QVQLVESGGGLVHPGGSLRLSCAASGSSLDHYVIGWFRQVPGKQREGISCISSGGSTNYADSVKGRFTVSRDNVKSTVYLQMNSLAPDDSAEYYCAAQRNLGNFCVLGWLEYDDWGQGTQVTVSS
With B5, the Kd with Cys-HLA [1] was at most 0.01 nM; with Cys-HLA [3], at most 1 pM.

B6: Ma7C11 (VHH)
VHH: QVQLVESGGGLVRAGGSLRLSCAASGSISSVNGMGWFRQAPGKERLFVAQVSLLDSSTYYADSVKGRFTISRDDAKNTMYLQMNNVRPEETAVYYCAATKLRIGTAFSSEYDYWGQGTQVTVSS
Take B6: the Kd with Cys-HLA [1] turned out to be 0.3 nM.

B7: Bm28C09 (VHH)
VHH: QVQLVESGGSVVQAGGSLRLSCTASGRNFNSYAMGWFRRPPGEQRDFIAAIIRSTGKTTYADSDSVKGRFTISKDSSGNTVYLQMNNLKPEDTAIYYCAGGDAGPYAFGYDYWGQGTQVTVSS
Take B7: the values for the Kd with Cys-HLA [1] and in the assay with Cys-HLA [2] were at most 0.01 nM and 0.015 nM, respectively.

B8: Ma7A07 (VHH)
VHH: QVQLVESGGGLVQPGGSLRLSCAASGFTLGDYTLGWFRQAPGKQREGVSSIASSALSIYIADSVKGRFTISRDDAKNTIYLHMNNLKPEDTGVYYCARGVDSWRWVPSAMDLWGKGTLVTVSS
On to B8, for which the Kd with Cys-HLA [1] is at most 0.01 nM; with Cys-HLA [3], 6 pM.

B9: Ma7B03 (VHH)
VHH: B8 VHH with G30S, D31N, T33Y, L34V, A52G, A55D, D74N, E89D, V100T, L118Q
B9 came in with a dissociation constant (Kd) in the assay with Cys-HLA [1] of at most 0.01 nM.

B10: Ma7A08 (VHH)
VHH: B8 VHH with R19T, A55V, I58V
As for B10, the Kd in the assay with Cys-HLA [1] was at most 0.01 nM.

B11: Ma7B12 (VHH)
VHH: B8 VHH with D74N, I79V, V100I, S102N, L118Q
The molecule B11 had a Kd in the assay with Cys-HLA [1] of at most 0.01 nM.

B12: Ma7C02 (VHH)
VHH: QVQLVESGGGLVQAGGSLRLSCAASGRTFSDYAMGWFRQAAGKDRDFVAVITRSGDSTYYPDSTKGRFTISRDNAKNTMYLQMNSLKPEDTARYYCAATDPTNYWRIWEHEFDYWGQGTQVTVSS
On to B12, for which, in the assay with Cys-HLA [1], the Kd was 0.09 nM.

B13: Bm28H01 (VHH)
VHH: QVQLVESGGGLVQPGGSLTLSCAASGFTLGDRTLGWFRQVAGKQREGVASIASGVLSAYIADSVKGRFTISRDDAKNTIYLHMNNLKPDDTGVYYCARGVDSWRWVPSTMDLWGKGILVTVSS
In the assay with Cys-HLA [1], B13 came in with a Kd of at most 0.01 nM.

B14: Ma7F02 (VHH)
VHH: QVQLVESGGGLVQAGGSLRLSCTVSGSIDSLHTMGWFRQAPGKKRDFVAVVSWSGGNTYYPDYAKGRFTISRDNTKNTVYLQMNSLKPEDTAIYYCAAESGSGNYWKIWEHEFDSWGQGTQVTVSS
For B14, the Kd with Cys-HLA [4] is around 0.05 nM; in the assay with Cys-HLA [1] it was 0.04 nM.

B15: Ma8D07 (VHH)
VHH: QVQLVESGGGLVQPGGSLRLSCAASESIYKLNAMGWYRQAPGKELELVTTISSGGSTFYTDPVKGRFTISTDNAKNTVYLQMRSLKPEDTAMYYCAANPTYNHYSARGQGTQVTVSS
For the molecule B15, the Kd in the assay with Cys-HLA [1] came out at 0.8 nM.

B16: Ma8D08 (VHH)
VHH: B15 VHH with L11F, P14A
Take B16: in the assay with Cys-HLA [1], binding was put at a Kd of 1 nM.

B17: Bm28C04 (VHH)
VHH: QVQLVESGGGSVQPGNSLRLSCKVSGRTFNSYALGWFRRRPGDQRDFVASIIRSTGGTSYADSVKGRFTISYDNVQNTVDLQMNSLEPEDTAIYYCAGGDGHIYAFGYDYWGQGTQVTVSS
With B17, the figures for the Kd with Cys-HLA [4], with Cys-HLA [1] and with Cys-HLA [2] were around 0.05 nM, at most 0.01 nM and 0.04 nM, respectively.

B18: Bm28H07 (VHH)
VHH: B17 VHH with N84S
B18 had a Kd with Cys-HLA [1] of at most 0.01 nM.

B19: Ma7D06 (VHH)
VHH: QVQLVESGGGLVQAGGSLRLSCAASGSISGIDTMAWFRQIPGKDREFVAVIKWAAGSTWYPDFVKGRFTVSRDNAKNMVYLQMDSVKPEDTAIYYCAAAAGEKYYYRLFPYEYDYWGQGTQVTVSS
In turn, B19 registered a Kd in the assay with Cys-HLA [1] of 0.06 nM.

B20: Ma8A05 (VHH)
VHH: QVQLVESGGGLVQPGGSLRLSCAASPASGFTLDLYTIAWFLQAPGKEREGVSAISLSDEITYYSDAVKGRFTISRDSAKNTVFLQMDRLKPEDTGVYYCAIGAFDFILKEADADYWGQGTQVTVSS
In the assay with Cys-HLA [1], B20 gave a dissociation constant (Kd) of 0.6 nM.

B21: Ma31B06 (VHH)
VHH: B20 VHH with E6Q, S17T
Molecule B21 registered a Kd with Cys-HLA [1] of 0.075 nM.

B22: Ma8D05 (VHH)
VHH: B20 VHH with A66T
For the molecule B22, the dissociation constant (Kd) in the assay with Cys-HLA [1] stood at 1 nM.

B23: Ma31A12 (VHH)
VHH: B20 VHH with P26A, A111V
In turn, B23 yielded a Kd in the assay with Cys-HLA [1] of 0.065 nM.

B24: Ma7B01 (VHH)
VHH: QVQLVESGGGLVQAGDSLSLSCAASGRTFSNYAMGWFRQAPGKERHFVAVINQIGDSTWYPDFAKGRFTISRDNAKNTLYLQMNSLKPEDTAVYYCAATDPRSYWRIWPHEYGYWGQGTQVTVSS
As for B24, in the assay with Cys-HLA [1], the affinity, expressed as Kd, was 0.05 nM.

B25: Ma7E01 (VHH)
VHH: B24 VHH with L11S, A23V, G26E, Q53P, D56E, S57E, P109E, Y112F, G113D
In turn, B25 returned a Kd with Cys-HLA [1] of at most 0.01 nM.
